Reference: patent US20250320281A1

How the values were obtained:
Test in all cases: cell-based or functional assay
[1] = target: HIV-1 Env of isolate MG RM-D-021 (HIV-1)
[2] = target: HIV-1 Env of pseudovirus MGRM-AG-002 (subtype AG) (HIV-1)
[3] = target: HIV-1 Env of isolate MG RM-D-024 (HIV-1)
[4] = target: HIV-1 Env of pseudovirus MGRM-AG-006 (subtype AG) (HIV-1)
[5] = target: HIV-1 Env of isolate MGRM-F1-021 (HIV-1)
[6] = target: HIV-1 Env of pseudovirus MGRM-AG-011 (subtype AG) (HIV-1)
[7] = target: HIV-1 Env of pseudovirus MGRM-AG-008 (subtype AG) (HIV-1)
[8] = target: HIV-1 Env of isolate MG RM-D-016 (HIV-1)
[9] = target: HIV-1 Env of isolate MG RM-D-022 (HIV-1)
[10] = target: HIV-1 Env of isolate MG RM-D-019 (HIV-1)
[11] = target: HIV-1 Env of isolate MGRM-F1-004 (HIV-1)
[12] = target: HIV-1 Env of pseudovirus MGRM-AG-005 (subtype AG) (HIV-1)
[13] = target: HIV-1 Env of isolate MGRM-F1-014 (HIV-1)
[14] = target: HIV-1 Env of isolate MGRM-F1-013 (HIV-1)
[15] = target: HIV-1 Env of isolate MGRM-F1-022 (HIV-1)
[16] = target: HIV-1 Env of pseudovirus MGRM-AG-012 (subtype AG) (HIV-1)
[17] = target: HIV-1 Env of isolate MG RM-D-018 (HIV-1)
[18] = target: HIV-1 Env of isolate MGRM-F1-018 (HIV-1)
[19] = target: HIV-1 Env of isolate MGRM-F1-008 (HIV-1)
[20] = target: HIV-1 Env of isolate MG RM-D-028 (HIV-1)
[21] = target: HIV-1 Env of isolate MG RM-D-014 (HIV-1)
[22] = target: HIV-1 Env of pseudovirus MGRM-AE-007 (subtype AE) (HIV-1)
[23] = target: HIV-1 Env of isolate MGRM-F1-023 (HIV-1)
[24] = target: HIV-1 Env of isolate MGRM-F1-010 (HIV-1)
[25] = target: HIV-1 Env of pseudovirus MGRM-AG-001 (subtype AG) (HIV-1)
[26] = target: HIV-1 Env of pseudovirus MGRM-AG-009 (subtype AG) (HIV-1)
[27] = target: HIV-1 Env of isolate MGRM-F1-020 (HIV-1)
[28] = target: HIV-1 Env of isolate MG RM-D-026 (HIV-1)
[29] = target: HIV-1 Env of isolate MG RM-D-012 (HIV-1)
[30] = target: HIV-1 Env of isolate MGRM-F1-017 (HIV-1)
[31] = target: HIV-1 Env of isolate MGRM-F1-006 (HIV-1)
[32] = target: HIV-1 Env of isolate MGRM-F1-016 (HIV-1)
[33] = target: HIV-1 Env of isolate MG RM-D-029 (HIV-1)
[34] = target: HIV-1 Env of isolate MG RM-D-020 (HIV-1)
[35] = target: HIV-1 Env of isolate MGRM-F1-015 (HIV-1)
[36] = target: HIV-1 Env of isolate MGRM-F1-012 (HIV-1)
[37] = target: HIV-1 Env of isolate MG RM-D-011 (HIV-1)
[38] = target: HIV-1 Env of isolate MGRM-C-005 (HIV-1)
[39] = target: HIV-1 Env of isolate MG RM-D-013 (HIV-1)
[40] = target: HIV-1 Env of pseudovirus MGRM-AE-008 (subtype AE) (HIV-1)
[41] = target: HIV-1 Env of pseudovirus MGRM-AG-003 (subtype AG) (HIV-1)
[42] = target: HIV-1 Env of pseudovirus MGRM-AG-013 (subtype AG) (HIV-1)

Chain of PGT-141 (4964_G22; 4993_K13) (antibody) (VH): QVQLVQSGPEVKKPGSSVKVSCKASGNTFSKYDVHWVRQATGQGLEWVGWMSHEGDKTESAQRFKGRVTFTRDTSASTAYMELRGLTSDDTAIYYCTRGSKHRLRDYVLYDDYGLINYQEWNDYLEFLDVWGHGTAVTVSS
Chain of PGT-141 (4964_G22; 4993_K13) (antibody) (VL): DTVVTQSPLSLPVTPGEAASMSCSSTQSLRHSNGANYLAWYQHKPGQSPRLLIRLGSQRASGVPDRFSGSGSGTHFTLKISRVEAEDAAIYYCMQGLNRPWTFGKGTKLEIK
Chain of PGT-142 (4995_E20) (antibody) (VH): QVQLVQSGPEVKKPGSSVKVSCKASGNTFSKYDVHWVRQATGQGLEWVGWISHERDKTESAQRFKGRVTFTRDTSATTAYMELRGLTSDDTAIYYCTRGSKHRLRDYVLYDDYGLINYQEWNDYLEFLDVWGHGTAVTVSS
Chain of PGT-142 (4995_E20) (antibody) (VL): as the sequence (VL) above

Q: Which results are given for PGT-141 (4964_G22; 4993_K13) (antibody)?
A: IC50 [1]: > 50 µg/mL; IC50, pseudovirus neutralization [2]: 0.049 µg/mL; IC50 [3]: > 50 µg/mL; IC50, pseudovirus neutralization [4]: > 50 µg/mL; IC50 [5]: > 50 µg/mL; IC50, pseudovirus neutralization [6]: 0.118 µg/mL; IC50, pseudovirus neutralization [7]: 19.2 µg/mL; IC50 [8]: > 50 µg/mL; IC50 [9]: > 50 µg/mL; IC50 [10]: 1.66 µg/mL; IC50 [11]: 0.021 µg/mL; IC50, pseudovirus neutralization [12]: 0.497 µg/mL; IC50 [13]: 0.001 µg/mL; IC50 [14]: 0.043 µg/mL; IC50 [15]: 0.114 µg/mL; IC50, pseudovirus neutralization [16]: > 50 µg/mL; IC50 [17]: > 50 µg/mL; IC50 [18]: 0.785 µg/mL; IC50 [19]: 0.193 µg/mL; IC50 [20]: < 50 µg/mL; IC50 [21]: 0.01 µg/mL; IC50, pseudovirus neutralization [22]: 33.1 µg/mL; IC50 [23]: 0.307 µg/mL; IC50 [24]: > 50 µg/mL; IC50, pseudovirus neutralization [25]: 18 µg/mL; IC50, pseudovirus neutralization [26]: > 50 µg/mL; IC50 [27]: 1.15 µg/mL; IC50 [28]: 32.5 µg/mL; IC50 [29]: > 50 µg/mL; IC50 [30]: 30.8 µg/mL; IC50 [31]: 8.99 µg/mL; IC50 [32]: > 50 µg/mL; IC50 [33]: 0.057 µg/mL; IC50 [34]: > 50 µg/mL; IC50 [35]: > 50 µg/mL; IC50 [36]: > 50 µg/mL; IC50 [37]: > 50 µg/mL; IC50, pseudovirus neutralization [38]: 8.83 µg/mL; IC50 [39]: 0.179 µg/mL; IC50, pseudovirus neutralization [40]: 0.101 µg/mL; IC50, pseudovirus neutralization [41]: > 50 µg/mL; IC50, pseudovirus neutralization [42]: > 50 µg/mL

Q: Which IC50 [1] does the source give for PGT-142 (4995_E20) (antibody) here?
A: > 50 µg/mL

Q: What about the IC50, pseudovirus neutralization [2] of the same substance?
A: 0.044 µg/mL

Q: And the IC50 [3]?
A: > 50 µg/mL

Q: What about the IC50, pseudovirus neutralization [4] of the same substance?
A: > 50 µg/mL

Q: What about the IC50 [5] of the same substance?
A: > 50 µg/mL

Q: And the IC50, pseudovirus neutralization [6]?
A: 0.081 µg/mL

Q: What about the IC50, pseudovirus neutralization [7] of the same substance?
A: 12.1 µg/mL

Q: And the IC50 [8]?
A: > 50 µg/mL

Q: And the IC50 [9]?
A: > 50 µg/mL

Q: What about the IC50 [10] of the same substance?
A: 0.155 µg/mL

Q: What about the IC50 [11] of the same substance?
A: 0.013 µg/mL

Q: And the IC50, pseudovirus neutralization [12]?
A: 0.383 µg/mL

Q: And the IC50 [13]?
A: 0.001 µg/mL

Q: What about the IC50 [14] of the same substance?
A: 0.023 µg/mL

Q: What about the IC50 [15] of the same substance?
A: 0.04 µg/mL

Q: What about the IC50, pseudovirus neutralization [16] of the same substance?
A: > 50 µg/mL

Q: What about the IC50 [17] of the same substance?
A: > 50 µg/mL

Q: And the IC50 [18]?
A: 0.404 µg/mL

Q: And the IC50 [19]?
A: 0.124 µg/mL

Q: And the IC50 [20]?
A: > 50 µg/mL

Q: And the IC50 [21]?
A: 0.005 µg/mL

Q: And the IC50, pseudovirus neutralization [22]?
A: 6.7 µg/mL

Q: And the IC50 [23]?
A: 0.602 µg/mL

Q: And the IC50 [24]?
A: > 50 µg/mL

Q: What about the IC50, pseudovirus neutralization [25] of the same substance?
A: 12.4 µg/mL

Q: And the IC50, pseudovirus neutralization [26]?
A: > 50 µg/mL

Q: And the IC50 [27]?
A: 0.824 µg/mL

Q: And the IC50 [28]?
A: 12.5 µg/mL

Q: What about the IC50 [29] of the same substance?
A: > 50 µg/mL

Q: What about the IC50 [30] of the same substance?
A: 23.5 µg/mL

Q: And the IC50 [31]?
A: 12.9 µg/mL

Q: What about the IC50 [32] of the same substance?
A: > 50 µg/mL

Q: And the IC50 [33]?
A: 0.192 µg/mL

Q: And the IC50 [34]?
A: > 50 µg/mL

Q: And the IC50 [35]?
A: > 50 µg/mL

Q: What about the IC50 [36] of the same substance?
A: > 50 µg/mL

Q: And the IC50 [37]?
A: > 50 µg/mL

Q: What about the IC50 [39] of the same substance?
A: 0.221 µg/mL

Q: What about the IC50, pseudovirus neutralization [40] of the same substance?
A: 0.08 µg/mL

Q: And the IC50, pseudovirus neutralization [41]?
A: > 50 µg/mL

Q: What about the IC50, pseudovirus neutralization [42] of the same substance?
A: 21.7 µg/mL
